One molecule from patent US20220233697A1 (ACCELERON PHARMA, published 2022) can be followed below.

The assay has as its target T1, activin A (UniProt P08476 311-426).
T1 construct: also called ActA
T1 sequence (looked up): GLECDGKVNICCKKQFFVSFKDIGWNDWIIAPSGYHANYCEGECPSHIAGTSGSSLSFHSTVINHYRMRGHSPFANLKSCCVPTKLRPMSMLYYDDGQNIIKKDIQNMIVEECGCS
Put plainly: Biacore, ligand coupled, receptor flowed (table reproduced from WO2006/012627). On the technique in general: SPR reads the build-up and loss of mass on a sensor chip optically.

B1: Soluble ActRIIB-Fc K55A (Fc fusion, UniProt Q13705 19-119, looked up)
chain: SGRGEAETRECIYYNANWELERTNQSGLERCEGEQDARLHCYASWANSSGTIELVKKGCWLDDFNCYDRQECVATEENPQVYFCCCEGNFCNERFTHLPEA
notes: not shown: Fc domain, not specified
As for B1, the binding result is reported as “binds”.
